30 sequences from the nanobody polyreactivity screen of Harvey et al. (2022) can be followed below.

A short description of this data set: yeast display, Sf9 membrane polyspecificity reagent, FACS + sequencing; frameworks hold sequencing errors. In a few lines: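 Using colony PCR, genes from sorted yeast display clones were amplified, then sequenced on MiSeq at 2 × 250 and filtered by CDR length. The clones had been stained with 10% biotinylated, detergent-solubilized Sf9 membrane reagent for 1 hour at 4 °C and sorted by FACS into low and high (top ~1%) gates on anti-HA and streptavidin fluorescence. Polyreactivity labels come from the gate of origin.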
Regarding “QVQLVESGGGLVQAGGSLRLSCAASGGTFDNYAMGWYRQAPGKERELVAAISWSGDNTYYADSVKGRFTISRDNAKNTVYLQMNSLKPEDTAVYYCAAVYFWYSYDEGYTAYDYWGQGTQVTVSS”, the “polyreactivity (PSR sort gate)” value was “low polyreactivity”.

Regarding “QVQLVESGGGLVQAGGSLRLSCAASGGTFDPSAMGWYRQAPGKERDFVAAISWSGGRTYYADSVKGRFTISRDNAKNTVYLQMNSLKPEDTAVYYCAATSVGYAQRRYGYWGQGTQVTVSS”, the “polyreactivity (PSR sort gate)” value is “high polyreactivity”.

For “QVQLVESGGGLVQAGGSLRLSCAASGGTFDTYDMGWYRQAPGKERELVAAIRFGDGTTYYADSVKGRFTISRDNAKNTVYLQMNSLKPEDTAVYYCAAVFVWQPQYDQFRYDYWGQGTQVTVSS”, the “polyreactivity (PSR sort gate)” value is reported as “low polyreactivity”.

For “QVQLVESGGGLVQAGGSLRLSCAASGGTFDVNAMGWYRQAPGKERELVAAITWSGGNTYYADSVKGRFTISRDNAKNTVYLQMTSLKPEDTAVYYCATDFSPVYYTRYDYWGQGTQVTVSS”, the “polyreactivity (PSR sort gate)” value is reported as “low polyreactivity”.

In the case of “QVQLVESGGGLVQAGGSLRLSCAASGGTFDVYTMGWYRQAPGKERELVAAIDNGGSTNYADSVKGRFTISRDNAKNTVYLQMNSLKPEDTAVYYCAADEVYLFWGIAEFIYDYWGQGTQVTVSS”, the “polyreactivity (PSR sort gate)” value is listed as “low polyreactivity”.

As to “QVQLVESGGGLVQAGGSLRLSCAASGGTFDWNTMGWYRQAPGKERELVASITSGGRTNYAASVKGRFTISRDNAMNPVYLQLNSLKPEDTAVYYCANYPRSAYPWQTWVGQKFDYWGQGTQVTVSS”, the “polyreactivity (PSR sort gate)” value is “low polyreactivity”.

Take “QVQLVESGGGLVQAGGSLRLSCAASGGTFETYALGWYIPAPGKEREFVAANSRSGGSTYYADSVKGRFTISRDNAKNTVYLQMNSLKPEDTAVYYCAAEGYDLSSRVYGGYDYWGQGTQVTVSS”: the “polyreactivity (PSR sort gate)” value is recorded as “low polyreactivity”.

In the case of “QVQLVESGGGLVQAGGSLRLSCAASGGTFFTNAMGWYRQAPGKERELVAVITGSGGRTYYADSVKGRFTISRDNAKNTVYLQMNSLKPEDTAVYYCAARGYSWGQGTQVTVSS”, the “polyreactivity (PSR sort gate)” value is “high polyreactivity”.

“QVQLVESGGGLVQAGGSLRLSCAASGGTFGQYAMGWYRLAPGKERELVAAITSSGGRKYYADSVKGRFTISRDNAKNTVYLQMNSLKPEDTAVYYCAADVQSRYVGEGDYWGQGTQVTVSS”: the “polyreactivity (PSR sort gate)” value was “high polyreactivity”.

Take “QVQLVESGGGLVQAGGSLRLSCAASGGTFGQYAMGWYRQAPGKERELVAAITSSGGRTYYADSVKGRFTISRDNAKNTVYLQMNSLKPEDTAVYYCAADVQSRYVGEGDYWGQGTQVTVSS”: the “polyreactivity (PSR sort gate)” value is recorded as “high polyreactivity”.

As to “QVQLVESGGGLVQAGGSLRLSCAASGGTFGSYAMGWYRQAPGKDRELVAAITGSGGRTYYADTVKGRFTISRDNAKNTVYLQMKSLKPEDTAVYYCNATRGIGTPYYYWGQGTQVTVSS”, the “polyreactivity (PSR sort gate)” value is listed as “high polyreactivity”.

Regarding “QVQLVESGGGLVQAGGSLRLSCAASGGTFGYNAMGWYRQAPGKERELVADITRGGITYYADSVKGRFTISRDNAKNTVYLQMNSLKPEDTAVYYCNAEYYVFSYSYGGVLRGDYWGQGTQVTVSS”, the “polyreactivity (PSR sort gate)” value is recorded as “high polyreactivity”.

In the case of “QVQLVESGGGLVQAGGSLRLSCAASGGTFHLNAMGWYRQAPRKEREFVASISWSGGSTYYADSVKGRFTISRDNAKNTVYLQMNCLKPEDTAVYYCARRKYYRQGGRTKGYDYWGQGTQVTVSS”, the “polyreactivity (PSR sort gate)” value is given as “high polyreactivity”.

Turning to “QVQLVESGGGLVQAGGSLRLSCAASGGTFHYYAMGWYRQAPGKERELVAAINRSGDSTYYADSVKGRFTISRDNAKNTVYLQMNSLKPEDTAVYYCAVSYYGADGNPFPHDYWGQGTQVTVSS”, the “polyreactivity (PSR sort gate)” value is given as “low polyreactivity”.

With “QVQLVESGGGLVQAGGSLRLSCAASGGTFITNAMGWYRKAPGKERELVAAITSGGRTTYADSVKGRFTISRDNAKNTVDLQMNSLKPVDTAVYYCAADHVYSSTYFLDDYWGQGTQVTVSS”, the “polyreactivity (PSR sort gate)” value is “low polyreactivity”.

In the case of “QVQLVESGGGLVQAGGSLRLSCAASGGTFLFYGMGWYRQAPGNERELVAVITWSGGSTYYADSVKGRFTISRDTAKNTVYLHMNSLKPVDTAVYYCAADGYFYFDYPWMNYWGQGTQVTVSS”, the “polyreactivity (PSR sort gate)” value is “low polyreactivity”.

In the case of “QVQLVESGGGLVQAGGSLRLSCAASGGTFLNYAMGWYRQAPGKERELVAVITNGDSTYYADSVKGRFTISRDNAKNSVYLQMNSLKPEDTAVYYCNADDWGQYNIWYDYWGQGTQVTVSS”, the “polyreactivity (PSR sort gate)” value is listed as “low polyreactivity”.

“QVQLVESGGGLVQAGGSLRLSCAASGGTFLSNAMGWYRQAPGKERELVAAISASSGSTYYADSVKGRFTISRDNAKNPVYLQMNSVKPEDTAVYYCAKERRASVVRYDYWGQGTQVTVSS”: the “polyreactivity (PSR sort gate)” value is listed as “low polyreactivity”.

“QVQLVESGGGLVQAGGSLRLSCAASGGTFNGYAMGWYRQAPGKERELVAAITSSGGSTYYADSVKGRFTISRDNAKNTVYLQMNSLKPEDTAVYYCAAALYPTYDVVRGYAYEYWGQGTQVTVSS”: the “polyreactivity (PSR sort gate)” value was “low polyreactivity”.

For “QVQLVESGGGLVQAGGSLRLSCAASGGTFNSNAMGWYRQAPGKERELVASITWRCGTYYADSVKGRFTISRDNAKNTVYLQMNSLKPVDTAVYYCAADTYYKGDYWGQGTQVTVSS”, the “polyreactivity (PSR sort gate)” value is “high polyreactivity”.

With “QVQLVESGGGLVQAGGSLRLSCAASGGTFNSNAMGWYRQAPGKERELVASITWRGGTYYADSVKGRFTISRDNAKNTVYLQMNSLKPEDTAVYYCAARGTIPGIHWIYYYWGQGTQVTVSS”, the “polyreactivity (PSR sort gate)” value is given as “high polyreactivity”.

For “QVQLVESGGGLVQAGGSLRLSCAASGGTFNTNAMGWYRQAPGKERELVATIRGGVITTYADSVKGRFTISRDNAKNTVYLQMNSLKPEDTAVYYCAVDDLRGYDYWGQGTQVTVSS”, the “polyreactivity (PSR sort gate)” value is reported as “low polyreactivity”.

In the case of “QVQLVESGGGLVQAGGSLRLSCAASGGTFPRNAMGWYRQAPGKERELVAAISRRGGSTYYADSVKGRFTISRDNAKNTVYLQMNSLKPEDTAVYYCATVQDKTYEYGYWGQGTQVTVSS”, the “polyreactivity (PSR sort gate)” value is reported as “high polyreactivity”.

In the case of “QVQLVESGGGLVQAGGSLRLSCAASGGTFPTNAMGWYRQAPGKERELVAAITSSGVRTYYADSVKGRFTISRDNAKNTVYLQMNSLKPEDTAVYYCATYSYTWMNYYWGQGTQVTVSS”, the “polyreactivity (PSR sort gate)” value was “high polyreactivity”.

On to “QVQLVESGGGLVQAGGSLRLSCAASGGTFQDYGMGWYRQAPGKERELVAAITWSGGSTYYADSVKGRFTISRDNAKNTVYLQMNSLKPEDTAVYYCAAVYADVYLYLTAYDYWGQGTQVTVSS”, for which the “polyreactivity (PSR sort gate)” value is given as “low polyreactivity”.

On to “QVQLVESGGGLVQAGGSLRLSCAASGGTFQINAMGWYRQAPGKEREMVAAISAAGGRTYYADSVKGRFTISRDNANNTVYLQMNSLKPEDTAVSYCAADWSYQVGRHQYFPMRYDYWGQGTQVTVSS”, for which the “polyreactivity (PSR sort gate)” value is listed as “high polyreactivity”.

For “QVQLVESGGGLVQAGGSLRLSCAASGGTFRANAMGWYRQAPGKERELVAAISFRGGTTYYADSVKGRFTISRDNAKNTVYLQMNSLKPEDTAVYYCAARFLYYFRGKGYDYWGQGTQVTVSS”, the “polyreactivity (PSR sort gate)” value is reported as “high polyreactivity”.

For the sequence “QVQLVESGGGLVQAGGSLRLSCAASGGTFRKYAMGWYRPAPGKERELVATISNGGSTYYADSVKGRFTISRDNAKNTVYLQMNSLIPEDTAVYYCAARFDYWVSGGLVKYNYWGQGTQVTVSS”, the “polyreactivity (PSR sort gate)” value is “high polyreactivity”.

Consider “QVQLVESGGGLVQAGGSLRLSCAASGGTFRLYAMGWYRQAPGKDRELVAAITGVGSTNYADSVKGRFTISRDNAKNTVYLQMNSLKPEDTAVYYCAAYYWSQVLIQGYYSWGQGTQVTVSS”, for which the “polyreactivity (PSR sort gate)” value is listed as “high polyreactivity”.

Regarding “QVQLVESGGGLVQAGGSLRLSCAASGGTFRSNAMGWYRQAPGKERELVAASTNYADSVKGRFTISRDNAKTTVYLQMNSLKPEDTAVYFCAARLASWPLTYDFQWYEYWGQGTQVTLSS”, the “polyreactivity (PSR sort gate)” value was “low polyreactivity”.
